The target of experiment [1] is EGFP-miPEP8 SLiMmt (mutated SLiM MOD_Plk1/MOD_Plk4) (Drosophila melanogaster). Kind of experiment: affinity purification with mass spectrometry; GFP-Trap agarose beads O/N at 4 °C on lysates of S2 cells transfected with EGFP, EGFP-miPEP8 or EGFP-miPEP8 SLiMmt; lysis buffer 50 mM Tris pH 7.5, 50 mM NaCl, 5% glycerol, 0.1% Igepal; four washes; LC-MS/MS, MaxQuant.
Experiment [2] deals with miPEP8 fused on its C-terminus to the N-terminal fragment of luciferase (N-Luc) (Drosophila melanogaster). The experiment in a line: split reporter (BiFC, NanoBiT); split firefly luciferase in S2 cells: miPEP8 or Ey fused to N-Luc, candidates or Antp fused to C-Luc; 48 h after transfection, D-luciferin, luminescence normalised; negative control: the two fragments not fused to any protein.

The text below walks through data of paper PMC13053990.

B1: ref(2)P (refractory to sigma P), the orthologue of the human p62/Sequestosome 1 protein (natural protein)
chain: MPEKLLKITYQGAGPQKKINAYLRMPSQNYTILRREIELYLFQERQLPKCDVRTFWIDADKDEIEIVNQNDYEIFLAKCESNMHVQVAPLAPVEEPKATKQEGSSANAEAPSVDDPSNFTIHDAVECDGCGLAPLIGFRYKCVQCSNYDLCQKCELAHKHPEHLMLRMPTNNGPGMVDAWFTGPGLGRRSGRRSRGHCPFQETNQADPAGEPARDSRRERRQARRHAGVLTQFVEMMTNLPLNTTTATAPAEPQKPKAAEQTESPPQAEPTVTAEKAAESEAKPTEPKKVNTDQSVPRTEDPVTTPRSTQPTTPVINLDNISQIVPPEYMSAGIEILNNFSEMFSKIIDTTEGGDSGIFAPSTTPSAENKKPEEQGQSSGQSGASSANQSAVPSAAPSANQSNVPSANQSATPSISGSIPDAQLETEPLNPKPSETTTETEQERRRSDSLDPEWQLIDNAYSANNSNLINLDTTNPTAAPQEPVRDFGQLGELLRQHMNEEARVEQASANTQTAQVDTVSTSTSTTSVTTNSVGTSPAAPDDKRTVPVYHTDESINKSIHAMMAMGFSNEGAWLTQLLESVQGNISAALDVMNVSQNRN
In turn, B1 gave a fold decrease of the interaction against EGFP-miPEP8 (MS intensity) in experiment [1] of 2.8 fold.

B2: PI3K92 E fused with the C-terminal fragment of the luciferase (natural protein)
chain: MNMMDNRALAYVAHQPKYETPPEEAEPPCMRFSVNLWKNEMLNWVDLICLLPNGFLLELRVNPANTIQVIKVEMVNQAKQMPLGYVIKEACEYQVYGISTFNIEPYTDETKRLSEVQPYFGILSLGERTDTTSFSSDYELTKMVNGMIGTTFDHNRTHGSPEIDDFRLYMTQTCDNIELERSAYTWQQRLLYEHPLRLANSTKMPELIRERHPTRTFLIVVKNENDQSTFTLSVNEQDTPFSLTESTLQKMNRSQMKMNDRTSDYILKVSGRDEYLLGDYPLIQFLYIQEMLSDSAVPNVVLQSVYRLESYINHHNEQAMVTKRPLPKKRTVHLHKSISSLWDMGNYFQLTLHSISNVNFDKTRALKVGVHVCLYHGDKKLCAQRSTDSPNGNFDTFLFNDLVMDFDIQMRNLPRMTRLCIVIFEVTKMSRSKKSSNNKDIALKDVPYNKNPLAWVNTTIFDHKDILRTGRHTLYTWTYADDIQSVEVFHPLGTIEPNPRKEECALVDLTFLSSGTGTVRYPSEEVVLQYAADREQVNRLQRQLAGPEKPIKELKELMANYTGLDKIYEMVDQDRNAIWERRNDILRELPEELSILLHCVYWKERDDVADMWYLLKQWPLISIERSLELLDYAYPDPAVRRFAIRCLHFLKDEDLLLYLLQLVQAIKHESYLESDLVVFLLERALRNQRIGHYFFWHLRSEMQTPSMQTRFGLLLEVYLKGCKHHVAPLRKQLHVLEKLKQGSLIAKKGSKEKVKTMLQDFLRDQRNSAVFQNIQNPLNPSFRCSGVTPDRCKVMDSKMRPLWVVFENADVNASDVHIIFKNGDDLRQDMLTLQMLRVMDQLWKRDGMDFRMNIYNCISMEKSLGMIEVVRHAETIANIQKEKGMFSATSPFKKGSLLSWLKEHNKPADKLNKAINEFTLSCAGYCVATYVLGVADRHSDNIMVKRNGQLFHIDFGHILGHFKEKLGVRRERVPFVLTHDFVYVINKGFNDRESKEFCHFQELCERAFLVLRKHGCLILSLFSMMISTGLPELSSEKDLDYLRETLVLDYTEEKAREHFRAKFSEALANSWKTSLNWASHNFSKNNKQ
As to B2, in experiment [2], the luminescence signal, times the negative control (times the negative control) was 4.6.
